# Reference: PMC3605417, “An Archaeal Homolog of Proteasome Assembly Factor Functions as a Proteasome Activator” (PLoS ONE, 2013)
# T1: His6-tagged wild-type 20S proteasome (αβ1 form), Pyrococcus furiosus (Pyrococcus furiosus, UniProt Q8U0L6 1-260; Q8U4C9 1-196)
# T1 sequence (looked up) 1: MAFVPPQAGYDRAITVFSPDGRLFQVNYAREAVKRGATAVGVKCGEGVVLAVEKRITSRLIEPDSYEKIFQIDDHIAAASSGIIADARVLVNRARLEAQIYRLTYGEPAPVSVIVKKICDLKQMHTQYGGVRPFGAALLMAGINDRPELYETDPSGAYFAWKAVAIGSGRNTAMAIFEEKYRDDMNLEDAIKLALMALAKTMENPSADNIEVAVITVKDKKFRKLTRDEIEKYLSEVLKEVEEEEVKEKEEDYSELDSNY
# T1 sequence (looked up) 2: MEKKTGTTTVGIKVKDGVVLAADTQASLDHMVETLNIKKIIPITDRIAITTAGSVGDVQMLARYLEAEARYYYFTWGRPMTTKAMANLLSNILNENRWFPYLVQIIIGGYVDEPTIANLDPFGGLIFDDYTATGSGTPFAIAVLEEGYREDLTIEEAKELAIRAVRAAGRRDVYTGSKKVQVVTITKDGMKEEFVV
# T2: non-tagged mature 20S proteasome, inactive mutant (α + β1^NΔ6/T7A), Pyrococcus furiosus (Pyrococcus furiosus, UniProt Q8U0L6 1-260; Q8U4C9 7-196, T7A)
# T2 construct: proteasome α subunit PsmA, Pyrococcus furiosus, locus PF1571, residues 1-260; proteasome β subunit 1 PsmB1, Pyrococcus furiosus, locus PF0159 (residues 1-196); NΔ6: the six N-terminal (propeptide) residues removed; non-tagged version; source: E. coli BL21(DE3), co-expressed, purified (heat precipitation at 85°C, HiTrap Q HP, Sephacryl S-400); copies: 14 + 14
# T2 sequence (looked up) 1: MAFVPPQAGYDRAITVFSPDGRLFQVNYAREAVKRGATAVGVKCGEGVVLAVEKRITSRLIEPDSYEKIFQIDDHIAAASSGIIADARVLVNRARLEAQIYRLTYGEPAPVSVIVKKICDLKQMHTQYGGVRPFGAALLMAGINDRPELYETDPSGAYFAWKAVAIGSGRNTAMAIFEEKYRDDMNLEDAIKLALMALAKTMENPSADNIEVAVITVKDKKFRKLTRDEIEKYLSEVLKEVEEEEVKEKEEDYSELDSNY
# T2 sequence (looked up) 2: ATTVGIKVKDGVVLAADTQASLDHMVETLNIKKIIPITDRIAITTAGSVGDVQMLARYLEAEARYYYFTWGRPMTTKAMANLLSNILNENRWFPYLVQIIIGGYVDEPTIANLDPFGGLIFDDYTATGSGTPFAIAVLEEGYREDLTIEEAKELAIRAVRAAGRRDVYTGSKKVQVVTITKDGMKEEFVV
# T3: immature 20S proteasome retaining the β subunit propeptide, inactive mutant (α + β1^T7A), Pyrococcus furiosus (Pyrococcus furiosus, UniProt Q8U0L6 1-260; Q8U4C9 1-196, T7A)
# T3 construct: proteasome α subunit PsmA, Pyrococcus furiosus, locus PF1571, residues 1-260; proteasome β subunit 1 PsmB1 with its propeptide, Pyrococcus furiosus, locus PF0159, residues 1-196; non-tagged version; source: E. coli BL21(DE3), co-expressed, purified (heat precipitation at 85°C, HiTrap Q HP, Sephacryl S-400); copies: 14 + 14
# T3 sequence (looked up) 1: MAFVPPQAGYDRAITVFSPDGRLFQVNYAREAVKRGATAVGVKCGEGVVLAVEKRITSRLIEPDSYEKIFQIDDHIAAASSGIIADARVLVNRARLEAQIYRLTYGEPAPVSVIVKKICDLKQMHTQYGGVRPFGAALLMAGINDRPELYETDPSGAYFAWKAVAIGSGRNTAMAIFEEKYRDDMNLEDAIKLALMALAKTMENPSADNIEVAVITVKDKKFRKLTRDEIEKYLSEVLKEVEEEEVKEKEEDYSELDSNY
# T3 sequence (looked up) 2: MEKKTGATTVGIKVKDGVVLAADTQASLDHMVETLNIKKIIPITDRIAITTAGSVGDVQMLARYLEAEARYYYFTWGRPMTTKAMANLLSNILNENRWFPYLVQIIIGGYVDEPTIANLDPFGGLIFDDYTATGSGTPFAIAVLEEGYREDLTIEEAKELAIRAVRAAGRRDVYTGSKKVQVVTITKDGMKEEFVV
# B1: His6-PbaB, Pyrococcus furiosus (natural protein, UniProt Q8U1R3 1-280, looked up)
# chain: MEEGGTRNREEGKMKETTIVVYERPDIYDPIFIEGLPGIGLVGKLAAEHLIQELKAKKFAELYSPHFMHQVLIRKNSVVELMKNEFYYWKSPDDEHRDLIIVTGDTQVPPTDSYGHFEVAGKMLDFVQEFGTREIITMGGYQVPEIQGEPRVLAAVTHEDLIEYYKSKLEGCSVEVIWREDEGGAIVGAAGLLLGIGKLRGMFGISLLGESLGYIVDAKAAKAVLSAVTKILGLEIDMTALDERAKETEEILRKVEEMQRAMMEQVTPKLPHEEEDRGYL
# notes: PbaB, Pyrococcus furiosus, locus PF1142, residues 1-280; pET-28b (NdeI/XhoI); Used in SPR (immobilised), ultracentrifugation, electron tomography and the chaperone assay; also called His6-tagged PbaB; PF1142; source: E. coli BL21(DE3), purified (Ni2+-chelating Sepharose, HiTrap Q HP, Superdex 200); not shown: His6, N-terminal, kept
# Tests used:
# [1] = biological target: the molecule itself; assay: AUC; sedimentation velocity, 20 μM His6-tagged PbaA or PbaB, 150 mM sodium phosphate (pH 7.5), 100 mM NaCl, 38,000 rpm, 20°C; continuous c(s) distribution (SEDFIT)
# [2] = biological target: T1, His6-tagged wild-type 20S proteasome …; assay: cell-based or functional assay
# [3] = biological target: T2, non-tagged mature 20S proteasome, …; assay: SPR; Biacore T100, Sensor Chip NTA, 25°C; His6-tagged PbaB (wild type or CΔ3) immobilised; non-tagged mature (18.8-300 nM) or immature (18.5-296 nM) 20S proteasome or α subunit ring (15.4-246 nM) injected; 10 mM HEPES (pH 7.5), 150 mM NaCl, 0.05% Tween20; 10 μl/min; conditions: both partners purified
# [4] = biological target: T3, immature 20S proteasome retaining the β …; assay: as above; conditions: both partners purified
# [5] = biological target: the molecule itself; assay: crystal structure; non-tagged PbaB, 2.20 Å, space group C222(1), four molecules per asymmetric unit; 10% PEG10000, 100 mM Bis-Tris (pH 5.0), 50 mM sodium acetate, 5 mM NaAuCl4, 20°C
# [6] = biological target: B1; assay: SPR; Biacore T100, Sensor Chip NTA, 25°C; His6-tagged PbaB (wild type or CΔ3) immobilised; non-tagged mature (18.8-300 nM) or immature (18.5-296 nM) 20S proteasome or α subunit ring (15.4-246 nM) injected; 10 mM HEPES (pH 7.5), 150 mM NaCl, 0.05% Tween20; 10 μl/min; conditions: both partners purified
binder,measurement,setting,value
"His6-PbaA, Pyrococcus furiosus (natural protein, UniProt Q8U4Q9 1-242, looked up, PbaA, Pyrococcus furiosus, locus PF0015, residues 1-242; pET-28b (NdeI/XhoI); Pentamer in solution by sedimentation velocity; also called His6-tagged PbaA; PF0015; source: E. coli BL21(DE3), purified (Ni2+-chelating Sepharose, HiTrap Q HP, Superdex 200); not shown: His6, N-terminal, kept) MEEKKPVNLVLPEVENAIFIEGYPGVGLVGHIAANFLAKELDMDLIGYVDSLFIPPMSLILEGRPTPPLRFYGKNNIIIAIADIFLPPTLVNEIAKEIVNYLKKVNAEKVISLAGMGIGFFKDTFEVWGIGGSEEENKELESLGVKILKYGSITGMSGKLLWEASRAGLKSYVLLGETFGDRPDPRAAANVVEVLNKMLGLNVSVEPLLKEAEMIEEQLRRMHEQMEEARRKMERQYETMYL",stoichiometry N,[1],5
B1,"proteasomal degradation of human α-synuclein (18 μM) by 35 nM wild-type 20S proteasome with 105 nM PbaB, 95°C; fold acceleration by PbaB",[2],~2.5 fold
same,"proteasomal degradation of the fluorogenic nonapeptide LFP (10 μM) by 35 nM wild-type 20S proteasome with 175 nM PbaB, 45°C; fold acceleration by PbaB",[2],~3 fold
same,stoichiometry N,[1],4
same,Kd,[3],7.8 nM
same,Kd,[4],21 nM
"PbaB (non-tagged), Pyrococcus furiosus (natural protein, UniProt Q8U1R3 1-280, looked up, PbaB, Pyrococcus furiosus, locus PF1142, residues 1-280; Homotetramer in the crystal and by ultracentrifugation; Cloned into NdeI/XhoI of pET-28b; also called non-tagged PbaB; PF1142; source: E. coli BL21(DE3), purified (Ni2+-chelating Sepharose, thrombin cleavage of the His6-tag, HiTrap Q HP, Superdex 200); not shown: His6, N-terminal, cleaved) MEEGGTRNREEGKMKETTIVVYERPDIYDPIFIEGLPGIGLVGKLAAEHLIQELKAKKFAELYSPHFMHQVLIRKNSVVELMKNEFYYWKSPDDEHRDLIIVTGDTQVPPTDSYGHFEVAGKMLDFVQEFGTREIITMGGYQVPEIQGEPRVLAAVTHEDLIEYYKSKLEGCSVEVIWREDEGGAIVGAAGLLLGIGKLRGMFGISLLGESLGYIVDAKAAKAVLSAVTKILGLEIDMTALDERAKETEEILRKVEEMQRAMMEQVTPKLPHEEEDRGYL",stoichiometry N,[5],4
"non-tagged double homoheptameric ring of the proteasome α subunit, Pyrococcus furiosus (complex, UniProt Q8U0L6 1-260, looked up, proteasome α subunit PsmA, Pyrococcus furiosus, locus PF1571, residues 1-260; also called α subunit ring; source: E. coli BL21(DE3), purified (same procedure as the non-tagged 20S proteasome mutants); copies: 14) MAFVPPQAGYDRAITVFSPDGRLFQVNYAREAVKRGATAVGVKCGEGVVLAVEKRITSRLIEPDSYEKIFQIDDHIAAASSGIIADARVLVNRARLEAQIYRLTYGEPAPVSVIVKKICDLKQMHTQYGGVRPFGAALLMAGINDRPELYETDPSGAYFAWKAVAIGSGRNTAMAIFEEKYRDDMNLEDAIKLALMALAKTMENPSADNIEVAVITVKDKKFRKLTRDEIEKYLSEVLKEVEEEEVKEKEEDYSELDSNY",Kd,[6],330 nM
